Results published in paper PMC3273627.
Like-named read-outs stand apart in the source and are kept apart here. Blank lines part the entries; values can stand above or below the substance they belong to.

Tests used:
actin filaments [1] = target: actin filaments (UniProt P68135); assay: co-sedimentation
[2] = target: Actin (Oryctolagus cuniculus) (UniProt P68135); conditions: cited from earlier work
[3] = target: Actin (Oryctolagus cuniculus) (UniProt P68135); conditions: cited from earlier work; remark: listed apart in the source
actin filaments [4] = target: actin filaments (UniProt P68135); assay: co-sedimentation; remark: listed apart in the source

- Kd (actin filaments [1]): 6.85 µM
Substance: DP260 isoform of dystrophin

Substance: Dystrophin (from UniProt P11531)
- Kd [2]: 300 nM

Substance: Dystrophin DysN-R17 (from UniProt P11531)
- Kd [3]: 760 nM

- Kd (actin filaments [4]): 152 nM
- Kd (actin filaments [1]): 0.11 µM
Substance: full-length dystrophin, P11531 1-3678
